Biological target: T1, SpA wild type (Staphylococcal protein A, recombinant) (Staphylococcus aureus NCTC 8325, UniProt P02976, biotinylated (only for the beads of the phagocytosis assays); chemically coupled by amines to MagPlex beads in the Luminex assays)
T1 construct: Staphylococcal protein A (SpA) of S. aureus strain NCTC 8325, locus tag SAOUHSC_00069; In the functional rows on bacteria the SpA is that on S. aureus USA300 lac, not this recombinant protein; also called SpAwt
Assay: Luminex bead displacement assay; SpAwt coupled to MagPlex beads, saturated with biotinylated human IgGs (8 µg/mL, 30 min, room temperature), washed, then incubated with serially diluted IgG3 mAbs 1-4 or IgG3 isotype control in PBS; remaining human IgGs revealed with streptavidin-PE
Conditions: both partners purified

T1 sequence (P02976 37-485): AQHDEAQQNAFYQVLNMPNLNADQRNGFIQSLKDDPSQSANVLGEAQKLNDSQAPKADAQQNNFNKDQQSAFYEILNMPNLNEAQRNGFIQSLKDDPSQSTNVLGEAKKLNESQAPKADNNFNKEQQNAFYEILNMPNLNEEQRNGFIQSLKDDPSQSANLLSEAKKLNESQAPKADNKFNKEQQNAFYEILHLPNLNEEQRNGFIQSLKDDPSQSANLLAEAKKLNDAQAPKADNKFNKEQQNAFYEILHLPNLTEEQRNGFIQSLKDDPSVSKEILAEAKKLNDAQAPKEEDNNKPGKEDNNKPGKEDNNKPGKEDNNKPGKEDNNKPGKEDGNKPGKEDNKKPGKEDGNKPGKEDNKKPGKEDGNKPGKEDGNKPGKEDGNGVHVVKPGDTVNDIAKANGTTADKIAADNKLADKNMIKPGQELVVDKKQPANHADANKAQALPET

B1: anti-SpA monoclonal antibody mAb-2 in IgG3 scaffold (antibody, V domains shown)
VH: QVQLVQSGAEVKKPGASVKVSCKASGYTFTRYYMHWVRQAPGQGLEWMGWINPPSGGTNYAQKFQGRVTMTRDTSTSTVYMELSSLRSEDTAVYYCARDPPMGQGMDVWGQGTLVTVSS
VL: EIVLTQSPATLSVSPGERATLSCRASQSISSYLNWYQQKPGQAPRLLIYAASSLQSGIPARFSGSGSGTEFTLTISSLQSEDFAVYYCQQSFVAPFTFGGGTKVEIK
notes: heavy variable region; human IgG3 scaffold (heavy constant region); light chain; IgG3; also called IgG3 mAb-2; source: Expi293, transient transfection, purified (protein G)
B1: binds.

B2: anti-SpA monoclonal antibody mAb-1 in IgG3 scaffold (antibody, V domains shown)
VH: EVQLVESGGGLVQPGGSLRLSCAASGFTFSTYGMSWVRQAPGKGLEWVSSITGSGRSTFYADSVKGRFTISRDNSTNTLSLQMNSLRAEDTAVYYCARSPADIVTGYYPWWFDLWGQGTLVTVSS
VL: DIQMTQSPSSLSASIGDRVTITCRASQSINTYLNWYQQKPGKAPRLLIAGASSLQSGVPSRFSGSGSGTDFTLTISSLQPEDFATYYCQQANSFPLTFGQGTRLEIK
notes: heavy variable region; human IgG3 scaffold (heavy constant region); light chain; IgG3; also called IgG3 mAb-1; source: Expi293, transient transfection, purified (protein G)
B2: binds.

B3: anti-SpA monoclonal antibody mAb-3 in IgG3 scaffold (antibody, V domains shown)
VH: QVQLVQSGAEVKKPGASVKVSCKASGYTFSHYYMHWVRQAPGQGLEWMGIINPRYGSTSYAQKFQGRVTMTRDTSTSTVYMELSSLRSEDTAVYYCARDGEVGARDLGWFDPWGQGTLVTVSS
VL: EIVLTQSPATLSVSPGERATLSCRASQSVSSNLAWYQQKPGQAPRLLIYGASTRATGIPARFSGSGSGTEFTLTISSLQSEDFAVYYCQQYTPLPWTFGGGTKVEIK
notes: heavy variable region; human IgG3 scaffold (heavy constant region); light chain; IgG3; also called IgG3 mAb-3; source: Expi293, transient transfection, purified (protein G)
B3: binds.

Reference: paper PMC8963248, “Natural Human Immunity Against Staphylococcal Protein A Relies on Effector Functions Triggered by IgG3” (Frontiers in Immunology, 2022)
